# In the DeepSol protein solubility set:
# Assay: soluble on expression in E. coli; label from the status in PepcDB or PDB records
row,Sequence,soluble on expression in E. coli
1,MALSKVKLNDTLNKDQLLSSSKYTIQRSTGDSIDTPNYDVQKHINKLCGMLLITEDANHKFTGLIGMLYAMSRLGREDTIKILRDAGYHVKANGVDVTTHRQDINGKEMKFEVLTLASLTTEIQINIEIESRKSYKKMLKEMGEVAPEYRHDSPDCGMIILCIAALVITKLAAGDRSGLTAVIRRANNVLKNEMKRYKGLLPKDIANSFYEVFEKHPHFIDVFVHFGIAQSSTRGGSRVEGIFAGLFMNAYGAGQVMLRWGVLAKSVKNIMLGHASVQAEMEQVVEVYEYAQKLGGEAGFYHILNNPKASLLSLTQFPHFSSVVLGNAAGLGIMGEYRGTPRNQDLYDAAKAYAEQLKENGVINYSVLDLTAEELEAIKHQLNPKDNDVEL,soluble
2,MAMKVKEVANLVGISVRTLHHYDEIGLLTPDETTESGYRLYSNENLEMLQQILFFKELGFPLKKIKEIIMSPSFDRKEALQLHKKMLLEKRARLDKVIATIDKTIQHTKGEIEMTNKEKFKGFDFSHNPYEEEARERWGDAAVDKANEYAKGMSKEKQEEFNAIYRNLAALRHGAPDSKEAQEAIKVWYDYLQNFSHYSLDAFKGLGQMYVADERFTKNIDKFGEGLAQFMCDAMEVYADRNK,not soluble
3,MANADLDKQPDSVSSVLKVFGILQALGEEREIGITELSQRVMMSKSTVYRFLQTMKTLGYVAQEGESEKYSLTLKLFELGARALQNVDLIRSADIQMRELSRLTKETIHLGALDEDSIVYIHKIDSMYNLRMYSRIGRRNPLYSTAIGKVLLAWRDRDEVKQILEGVEYKRSTERTITSTEALLPVLDQVREQGYGEDNEEQEEGLRCIAVPVFDRFGVVIAGLSISFPTLRFSEERLQEYVAMLHTAARKISAQMGYHDYPF,soluble
4,MANLIYLTLNGDNQGLISSGCSSQPSIGNKAQTAHIDQIMIYEFMHGLNRDQNVNHHHLTIKKPIDKASPLLGKAICDNELLTCDFSFYRTNKFGINELFYKIKLTGAKISDIHVSISHIVVDNSVQPEESVSFSYESIIWEHCSAGTSAYSLWEDRLF,not soluble
5,MANLTRRQWLKVGLAVGGMVTFGLSYRDVAKRAIDGLLNGTSGKVTRDRIFGNALIPEAQAQTHWQQNPQQTIAMTQCFGCWTQCGIRARVNADGKVIRIAGNPYHPLSQEHPIDSSVPFSEAMEQLAGESGLDARSTACARGATLLESLYSPLRLLEPMKRVGKRGEGKWQRISFEQLIEEVVEGGDLFGEGHVDGLRAIHAPDTPIDAKHPSFGPKTNQLLVTNTSDEGRDAFLRRFALNSFGSKNFGAHGAYCGLAYRAGSGALMGDLDKNPHVKPDWENVEFALFMGTSPAQSGNPFKRQARQLASARLRENFQYVVVAPALPLSTVLADPRGRWQPVMPGSDSALAMGMIRWIMDNQRYNADYLAIPGVQAMQQAGEQSWTNATHLVIADELPTLAGQHLTLRHLTPDGEETPVVLNTDGELVDASTCRQARLFVTQYVTLADGQRVTVKSGLQRLKEAAEKLSLAQYSEQCGVPEAQIIALAETFTSHGRKAAVISHGGMMAGNGFYNAWSVMMLNALIGNLSLSGGVFVGGGKFNGVSDGPRYNMNSFAGKVKPSGLSIARSKTAYEASEEYRDKIAGGQSPYPAKAPWYPFVAGQLTELLTSALEGYPYPLKAWISNMSNPFYGVPGLRAVAEEKLKDPRRLPLFIAIDAFMNETTALADYIVPDTHNFESWGFTAPWGGVASKATTARWPVVAPATHRTADGQPVSMEAFCIAVAKRLHLPGFGDRAITDPQGNTFPLNRAEDFYLRVAANIAFMGKTPVALANQEDISLTGVSRILPAIQHTLKADEVGRVAFIYSRGGRFAPEDSGYTEQRLGNAWKKPLQIWNADVAAHRHAITGERFSGCPVWYPARLSDGRAIDDQFPIGQWPLKLISFKSNTMSSSTAVIPRLHHVKPANLVALNPQDGERYGLQHGDRVRIITPGGQVVAQISLLNGVMPGVIAIEHGYGHREMGATQHSLDGVPMPYDPQIRAGINLNDLGFADPTRTITNTWLDWVSGAAVRQGLPAKIERI,not soluble
6,MANMTFSLPDPMKDWIESRIQKGEYASASDYVRDLVRRDWARRGQDFSIDELRQIVAESRASGVGSRSMDDLFAEAERVATAHGVMRE,not soluble
7,MANQLAAVLGTGQTHYVAKRHDVSMAGLVREAIDRAMEDARVGWDDIDAVVIGKAPDLFEGSMMPELAMSDALGANGKPLLRVHTAGSVGGSTAVVASSLVKSGVHKRVLTVAWEKQSESNAMWALSTPIPFHMPVGAGAGGYFAPHVRSYIRRSGAPDHIGAMVAVKDRLNGSLNPYAHLKQPDITLESVQASQMLWDPIRYDETCPSSDGACAMVIGNEEAAEQVTADGREVAWIHATAMRTEPTTFAGRDQVNPQAGRDAAAALWKAAGIKDPLDEIDVAEIYVPFSWFEPMWLENLGFVSEGEGWKLTEAGETAIGGRLPLNASGGVLSSNPIGASGMIRFAESAMQVMHRAGDHQVKDARKALGHAYGGGSQYFSMWVVGSDRPNN,not soluble
8,MANRVTMMMKIFENQTAMLHKALNDQHTIESKYKQMETNYENLILKKNLLEGEIQRLRDPERVKSATKLERTKKPGKSEKKKDKDLERNISPNREFKSFEELHQIQETERNKTQLDNVLPQKSEMFKEERTKTKRGQSQNKSKVKIEDSKDSLPKKSDTQLGEQRKDQISSDQSKRAK,soluble
9,MANSAGSMQQILNQFNHVVAIGGGHGLGRVLSSLDFLGNRLTGIVATTDNGGSTGRLRAEQDCIAWGDLRNCLSQLAHRPSVGSQLFEYRFQGETELSGHNLGNLMLLALDKLCVRPLEAVNLIRHMLKIETNIIPMSEQPTHLVALQASGSKVFGEVNVDKMNEAPIALCLEPQVNATTEACEAIRRADLIILGPGSFLTSIMPPLLLPCFAKALAMTTAPVVFIDNLNEEASPAGQFSIEQRISWCHQVIGKPVITKVLRHSEQLRLGTLVNYFPLRNRHNPQLHDQASLRDALCAVLRIKSGLPLETLVSLEHHHHHH,not soluble
10,MANTITADEIREHFSQAMSAMYQQEVPQYGTLLELVADVNLAVLENNPKLHEQLANADELARLNVERHGAIRVGTAEELSTLRRIFAIMGMYPVSYYDLSQAGVPVHSTAFRPIDEASLSRNPFRMFTSLLRLELIENAALRQRAAEILSQRDIFTSRCRQLLDEYDEQGGFSAAQAEEFVRETLETFRWHRQATVDEETYRSLHREHRLIADVVCFPGCHINHLTPRTLDIDRVQAMMPECGITPKILIEGPPRREVPILLRQTSFKALEEQVLFVDEKQGTHTARFGEIEQRGVALTPKGRRLYDELLHKAGTGKDNFTHQLHLREVFNAFPDSEFLLRQQGLAWFRYRLTPSGEAHRQAIHPGDDPQPLIERGWVIAQPITYEDFLPVSAAGIFQSNLGDETLARSHGNASRDAFEQALGCAVRDEFSLYQEAEERSKRRCGLLLEHHHHHH,not soluble
11,MAPAKKVETRSTDGETRRHIMLIMLKEGPVTATQLGQQLNLSATGIRRHLDILLDEGFAEISSVRRVACEKSRGRPAKAFKLTASGRSQFGHEYDSLAAEALATLKESGGEAAVRAFARKRVEKILADVHVPDNIDDNQLAEVATQLVEAFSNNGYAATINNAANGVQICQHHCPISGVAADFPELCEAEHEMIAKILGHHVQPLASIADGHDICTTNIPITPILTPRKNTPTERSGS,not soluble
12,MAQGYRRDHNHHHESGYKRPSDPGGDLPSDKRHRPPPAEGRTLSADRRLYERHFPLYKQPLELGCFSLDARRNFFNDHRQLRYYVEPRRSPDFNLRDGYTSRFIKRDDGVKEKLDHMLRWILENRHKMQNSNSSSCALGVDFITWRGHLTKVLTTPYETQEGWMMAACKFRGSIYISEVETEQARENRETRSERQEEMMYWGYKFEQYTCADGADGTPDPGGVVNTNEAFCTVVQTRLADQSQTLRV,not soluble
13,MAQILPIRFQEHLQLQNLGINPANIGFSTLTMESDKFICIREKVGEQAQVVIIDMNDPSNPIRRPISADSAIMNPASKVIALKAGKTLQIFNIEMKSKMKAHTMTDDVTFWKWISLNTVALVTDNAVYHWSMEGESQPVKMFDRHSSLAGCQIINYRTDAKQKWLLLTGISAQQNRVVGAMQLYSVDRKVSQPIEGHAASFAQFKMEGNAEESTLFCFAVRGQAGGKLHIIEVGTPPTGNQPFPKKAVDVFFPPEAQNDFPVAMQISEKHDVVFLITKYGYIHLYDLETGTCIYMNRISGETIFVTAPHEATAGIIGVNRKGQVLSVCVEEENIIPYITNVLQNPDLALRMAVRNNLAGAEEL,soluble
14,MAQIVRQSKFRHVFCKPVKHESCMSDIRVTEITWDSLFCDVNPKFIAFINRGAGGPFMVIPVNKIGRVDKDYPFVDAHKAPCLEVAWSPFNDNVIASCSEDTTCKVWVIPDRGLNRNLSEPAVELTGHQKRVNTIAWHPVANNVLLTAGGENVMFMWNVGTGEALLEISGHPDQIWSINFNFDGSQFVTTCKDKKIRILDSHTGEVVHEGMGHEGVKPQRAIFVKDGLILSTGFTKRSERLYALRAPEDLSTPIVEEELDTSNGVVFPFYDEDSGLVYLVGKGDCAIRYYEVNNDAPYVHYINTYTTNEPQRAVGFQSKRGMSSEENEINRIYKLTTKGVVDILQFFVPRKSDLFQHDLYPDTRSTIPALTAEEFMEGKNAAPNRQPVNAAAAAAAAKPKVQVAKKANILSTLAPTAAESVPTQSYSERPPSSQQPSPRPSASPRPRPVVDDDMGIVTMREAPPSRPASSRASRTEIPPKEESKVDPMKPKQAVQLKSRAARDEPGGGAQTAGQRRAAAELERIKRDQSRTADEDNTLAPPPSSSRASASPRGSVSAASDHVPQNMDELLEDLMKMKAVLRQHERRIRMLEEEIADRNMSNAYSF,not soluble
15,MAQNPNSFTDSVFGMIRNLLVSIRAGLFELTIKQPVTQNSLQRYQEEHREEKQQYLRQAILDLAEDSEEEDDGQPLDKETLSKMIAELTIERNNLRRSFNIVNEQRTGSKDRQHMEEEIRIQNWTKEDREELESGLAVMRQTIQESWKDAADCEQEKRSKNNQ,not soluble
16,MAQVGETEVVAGNVRDIVNRLSRDMTNRNPFTVHQQVERRAPPPQPQAQIYVATYAYSSKQDDELSFVVGDLIELISDVEDGWSKGKLKSTGAVGMFPTNFVTLKPTPSTSAAAVAPAASASTSAGSAARTPAKSIGSEVVMRSEPKAIDRTPSTIISDPAPVLKALETKFSSTFASSAASASTDAETTKTKEMARVKFVYNPQHDDELALKEIDMLINITNKNCGDAGWFEGELHGKKGLFPDNFVELVQVPLGTESGARHGSISRQATLTFVSHKPPPVNPPQPAVPPKPAKISVVRRGFIEKIEKKMFHFISGNN,soluble
17,MARETHDREDLLLEGVNLPERARLLHRASGREWVIGWRTGGGAAFYDGPDRVYQFNADNQLRRVYLDGSKLAAEGGRLCELRRPEPTNPDGSAGDRTQKVKLVWQPIDSAIQRNVLEQWAETRQQLLTALELFRERDLPNVTIASTAPDGSNSSLSTQPSIYSWESVGIDAFEMLDRTSGWLVSITDNPEIAAQPNA,soluble
18,MARFSSVLIYDGECPYCSVAAKALEQVDDIGAISWYDESAQSFLTAQFDEPPFAMVLVDRPAQQVYAGRAAAEELAGRAGLPDLVGSLVRDNYEKIAHVVGLASGRGLEHHHHHH,not soluble
19,MARFTDKVAIITGSSNGIGRATAVLLATDGAKVTITGRDAARLEETRQAILKAGISATNVNSVVADVTTAEGQDLLISSTLDKFGKINILINNAGANIPDSQGQTRTKCSIENLTKMFQLNLQSVVEMVQKVRPHLAKTRGEIVNISSIGAGPAAQPASPYYSSAKAALDQYSRCAAIDLISEGIRINVVQPGFVSTGFSTAARGLSADESVKFYDLMGSLPHCIPAGYCGQPDHLASVIAFLVDRKVSEYIVGQTIIADGGSSLVIGCHAPRQ,not soluble
